Measured values: patent US20200247894A1 (Regeneron, published 2020)

T1: D1 domain of human IL-2Rγ extracellular domain expressed with a C-terminal myc-myc-hexahistidine tag (human)
T1 construct: also called human IL2Rγ domain 1
T1 chain: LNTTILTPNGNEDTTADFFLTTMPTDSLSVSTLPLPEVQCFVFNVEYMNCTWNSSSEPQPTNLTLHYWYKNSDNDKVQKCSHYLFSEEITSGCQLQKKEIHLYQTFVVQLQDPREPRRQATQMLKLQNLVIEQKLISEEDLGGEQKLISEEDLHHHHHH

T2: D2 domain of human IL2Rγ extracellular domain expressed with a C-terminal myc-myc-hexahistidine tag (human)
T2 construct: also called human IL2Rγ domain 2
T2 chain: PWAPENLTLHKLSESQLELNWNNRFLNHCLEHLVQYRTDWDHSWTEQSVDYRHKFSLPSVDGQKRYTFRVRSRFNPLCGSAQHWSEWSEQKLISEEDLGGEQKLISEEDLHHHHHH

T3: human IL2Rγ (endogenously expressed on cells) (human, UniProt P31785 23-369)
T3 sequence (looked up): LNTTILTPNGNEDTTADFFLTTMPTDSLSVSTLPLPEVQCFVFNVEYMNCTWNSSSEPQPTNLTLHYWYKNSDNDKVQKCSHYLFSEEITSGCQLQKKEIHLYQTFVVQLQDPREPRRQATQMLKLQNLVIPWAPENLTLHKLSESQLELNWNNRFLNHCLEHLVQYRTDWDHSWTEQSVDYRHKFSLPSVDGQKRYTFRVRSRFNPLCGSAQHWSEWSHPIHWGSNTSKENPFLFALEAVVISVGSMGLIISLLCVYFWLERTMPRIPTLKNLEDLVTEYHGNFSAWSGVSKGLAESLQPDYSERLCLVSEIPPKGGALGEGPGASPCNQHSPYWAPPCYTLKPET


Columns and labels:
[1] = biological target: T1, D1 domain of human IL-2Rγ extracellular …; assay: SPR, mAb captured on anti-hFc, 25 C
Summary of the method: (§1)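 HBS-ET running buffer (10 mM HEPES, 150 mM NaCl, 3 mM EDTA, 0.05% Tween-20, pH 7.4). mAb capture via anti-human Fc. Dissociation monitored 8-10 min. 1:1 kinetic fit; KD, t1/2 derived from ka/kd.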

[2] = biological target: T1, D1 domain of human IL-2Rγ extracellular …; assay: SPR, mAb captured on anti-hFc, 37 C
Summary of the method: as §1

[3] = biological target: T2, D2 domain of human IL2Rγ extracellular …; assay: SPR, mAb captured on anti-hFc, 25 C
Description: (§2) Equilibrium dissociation constants (KD values) for IL-2Rγ binding to purified anti-IL2Rγ monoclonal antibodies were determined using a Biacore 4000 instrument equipped with a real-time surface plasmon resonance biosensor. All binding studies were performed in 10 mM HEPES, 150 mM NaCl, 3 mM EDTA, and 0.05% v/v Surfactant Tween-20, pH 7.4 (HBS-ET) running buffer at 25° C. and 37° C. The Biacore sensor surface was first derivatized by amine coupling with a monoclonal mouse anti-human Fc antibody (GE, # BR-1008-39) to capture anti-IL2Rγ monoclonal antibodies.

[4] = biological target: T2, D2 domain of human IL2Rγ extracellular …; assay: SPR, mAb captured on anti-hFc, 37 C
Description: as §2

[5] = biological target: T3, human IL2Rγ (endogenously expressed on …); assay: cell-based or functional assay
[6] = biological target: T2, D2 domain of human IL2Rγ extracellular …; assay: SPR, mAb captured on anti-hFc, 25 C; 25 C
Description: as §2

Binder | 100 nM Ag Bound [1] | binding result [1] | 100 nM Ag Bound [2] | 100 nM Ag Bound [3] | 100 nM Ag Bound [4] | IC50; IL-4 250 pM; Ramos.2G6.4C10/STAT3-luc [5] | IC50; IL-7 50 pM; NK92/hIL7R/STAT3-luc [5] | Max Inhibition (%); IL-2 30 pM; NK92/hIL7R/STAT3-luc [5] | Max Inhibition (%); IL-4 250 pM; Ramos.2G6.4C10/STAT3-luc [5] | Max Inhibition (%); IL-7 50 pM; NK92/hIL7R/STAT3-luc [5] | Max Inhibition (%); IL-9 20 pM; NK92/hIL7R/STAT3-luc [5] | Max Inhibition (%); IL-15 60 pM; NK92/hIL7R/STAT3-luc [5] | IC50; IL-9 20 pM; NK92/hIL7R/STAT3-luc [5] | further results
H4H12859P (antibody, human IgG4 S228P, kappa, V domains shown, human IgG4) VH: QVQLVQSGAEVKKPGASVRVSCKASGYTFTDYDIHWVRQAPGHGLEWMGWINPNSGGTNYAQKFQGRVTMTRDTSISTVYMDLSRLRSDDTAVYYCARADYSSSYYYYGMDVWGQGTTVTVSS VL: not shown | 0 RU |  | 0 RU | -1 RU | -1 RU |  |  | 29% |  |  |  |  |  | binding result [2]: no binding (tested: 100 nM)
H4H12863P (antibody, human IgG4 S228P, kappa, V domains shown, human IgG4) VH: QVQLVESGGGVVQPGRSLRLSCTASGFTFRSYDMYWVRQAPGKGLEWVSVITYDGNNKYYADSVKGRFTISRDNSKNTLFLQMSSLRPEDTAVYYCAKRGLIWVGESFDYWGQGTLVTVSS VL: DIQMTQSPSTLSASVGDRVTITCRASQSINSWLAWYQQKPGKAPNLLIYKASSLESGVPSRFSGSGSGTEFTLTISSLQPDDFATYYCQQYKSYSWTFGQGTKVEIKR | 55 RU |  | 39 RU | 0 RU | -1 RU | 3.6e-10 M | 1.5e-09 M | 48% | 70% | 42% | 38% | 30% | 4.7e-10 M | Kd [1]: 4.74 nM; koff [1]: 0.000538 s⁻¹; kon [1]: 114000 M⁻¹ s⁻¹; t½ [1]: 21 min; Kd [2]: 8.69 nM; koff [2]: 0.00221 s⁻¹; kon [2]: 254000 M⁻¹ s⁻¹; t½ [2]: 5 min; IC50; IL-2 30 pM; NK92/hIL7R/STAT3-luc [5]: 4.3e-10 M; IC50; IL-21 5 pM; NK92/hIL7R/STAT3-luc [5]: > 1e-07 M; Max Inhibition (%); IL-21 5 pM; NK92/hIL7R/STAT3-luc [5]: 28%
H4H12871P (antibody, human IgG4 S228P, kappa, V domains shown, human IgG4; also called REGN9434) VH: QVQLQESGPGLVKPSQTLSLTCTVSGGSITSGGYYWSWIRQYPGQGLEWIGYIYYSGKTYYNPSFTSRITISVDTSKKQFSLKMSSVTAADTAVYYCARAGFTSSNGWFDPWGQGTLVTVSS VL: DIQMTQSPSSLSASVGDRVTITCRASQNIRSYLNWYQQKPGKAPKLLIYSASSLQSGVPSRFSGSGSGTDFTLTISSLQPEDFPTYYCQQTYSSPWTFGPGTKVEIKR | 47 RU |  | 33 RU | 0 RU | -1 RU |  | 8.2e-10 M |  | 31% | 36% |  |  |  | Kd [1]: 11.8 nM; koff [1]: 0.00111 s⁻¹; kon [1]: 94000 M⁻¹ s⁻¹; t½ [1]: 10 min; Kd [2]: 21.2 nM; koff [2]: 0.0036 s⁻¹; kon [2]: 170000 M⁻¹ s⁻¹; t½ [2]: 3.2 min
H4H12913P2 (antibody, human IgG4 S228P, kappa, V domains shown, human IgG4) VH: EVQLVESGGGVVRPGGSLRLSCAASGFTFDDYGMSWVRQAPGKGLEWISSINRNGGSADYADSVKGRFTISRDNAKNSLFLQMSSLRAEDTALYHCASGEFRFDYWGQGTLVTVSS VL: not shown | 0 RU | no binding (tested: 100 nM) | 1 RU | 37 RU | 16 RU | > 1e-07 M | > 1e-07 M | 24% | 55% | 77% | 57% | 58% | > 1e-07 M | Kd [3]: 2.76 nM; koff [3]: 0.000708 s⁻¹; kon [3]: 256000 M⁻¹ s⁻¹; t½ [3]: 16 min; Kd [4]: 12.7 nM; koff [4]: 0.00337 s⁻¹; kon [4]: 266000 M⁻¹ s⁻¹; t½ [4]: 3.4 min; IC50; IL-15 60 pM; NK92/hIL7R/STAT3-luc [5]: > 1e-07 M

The next lines start with results.

100 nM Ag Bound [1] | binding result [1] | 100 nM Ag Bound [2] | 100 nM Ag Bound [3] | 100 nM Ag Bound [4] | IC50; IL-4 250 pM; Ramos.2G6.4C10/STAT3-luc [5] | IC50; IL-7 50 pM; NK92/hIL7R/STAT3-luc [5] | Max Inhibition (%); IL-2 30 pM; NK92/hIL7R/STAT3-luc [5] | Max Inhibition (%); IL-4 250 pM; Ramos.2G6.4C10/STAT3-luc [5] | Max Inhibition (%); IL-7 50 pM; NK92/hIL7R/STAT3-luc [5] | Max Inhibition (%); IL-9 20 pM; NK92/hIL7R/STAT3-luc [5] | Max Inhibition (%); IL-15 60 pM; NK92/hIL7R/STAT3-luc [5] | IC50; IL-9 20 pM; NK92/hIL7R/STAT3-luc [5] | Binder | further results
1 RU | no binding (tested: 100 nM) | 2 RU | -1 RU | 1 RU | > 1e-07 M | > 1e-07 M | 15% | 54% | 66% | 36% | 35% |  | H4H12890P (antibody, human IgG4 S228P, kappa, V domains shown, human IgG4) VH: EVQLVESGGGLVQPGGSLRLSCAASGFTFNNYAMHWVRQAPGKGLEYVSSISSSGGSTYYEDSVKGRFTISRDNSKNTLYLQMGSLRAEDMAVYYCARSFYGSGTYYDTFDMWGQGTMVTVSS VL: DIQMTQSPSSLSASIGDRVTITCRASQSISRYLNWYQQKPGKAPKLLIYAASSLQSGVPSRFSASGSGTDFTLTISSLQPEDFATYYCQQSYSTPFTFGQGTKLEIKR | 
0 RU |  | 1 RU |  |  | > 1e-07 M | 4.1e-08 M | 26% | 70% | 93% | 50% | 55% | > 1e-07 M | H4H12874P (antibody, human IgG4 S228P, kappa, V domains shown, human IgG4) VH: QVQLVESGGGVVQPGRSLRLSCAASGFNFRNFGMHWVRQAPGKGLEWVAGILYDGSSKYYADSVKDRFTISRDNSKNTLFLQMNSLRAEDTAMYYCAKEEDTAMVPFDSWGPGTLVTVSS VL: DIQLTQSPSFLSASVGDRVTITCWASQGISSYLAWYQQKPGKAPTLLIYAASTLQSGVPSRFSGSGSGTEFTLTISSLQPEDFASYYCQQLKSYPLTFGGGTKVEIKR | binding result [2]: no binding (tested: 100 nM); Kd [6]: 214 nM; koff [6]: 0.0435 s⁻¹; kon [6]: 203000 M⁻¹ s⁻¹; t½ [6]: 0.3 min; IC50; IL-15 60 pM; NK92/hIL7R/STAT3-luc [5]: > 1e-07 M
0 RU | no binding (tested: 100 nM) | 1 RU |  |  |  | > 1e-07 M | 18% | 33% | 46% |  | 34% |  | H4H12927P2 (antibody, human IgG4 S228P, kappa, V domains shown, human IgG4) VH: EVQLVESGGGVVRPGGSLRLSCATSGFTFDDYGMSWVRQVPGKGLEWVSSVNRNGGTTDYADSVKGRFTISRDNAKRSLFLQMNSLRAEDTALYHCATGELFFDYWGQGTLVTVSS VL: not shown | Kd [6]: 69.9 nM; koff [6]: 0.0166 s⁻¹; kon [6]: 238000 M⁻¹ s⁻¹; t½ [6]: 0.7 min
